Measurements: the supplement of paper PMC9112550, “Optimization of the antimicrobial peptide Bac7 by deep mutational scanning” (BMC Biology, 2022)

Tested on: Escherichia coli TOP10
Assay: shrunken log2 fold change of peptide-encoding DNA abundance (4.5 h post-induction vs induction); higher = less antimicrobial activity (less host growth inhibition)
Conditions: time post-induction: 4.5 h; library: site-saturation at positions 5, 18, 19, 20
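Note: peptides expressed intracellularly from a pBAD plasmid library in pooled LB shake-flask culture, induced with 0.3% L-arabinose, DNA abundance read by NGS, three biological replicates, DESeq2 with apeglm shrinkage.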

Row | Sequence | shrunken log2 fold change
1 | RRIRGRPPRLPRPRPRPPRWPRP | 1.17
2 | RRIRIRPPRLPRPRPRPPQLPRP | -0.122
3 | RRIRARPPRLPRPRPRPVLPPRP | 0.286
4 | RRIRYRPPRLPRPRPRPSMAPRP | -0.572
5 | RRIRFRPPRLPRPRPRPDHDPRP | -0.217
6 | RRIRSRPPRLPRPRPRPFCGPRP | -0.201
7 | RRIRSRPPRLPRPRPRPFQTPRP | -0.266
8 | RRIRQRPPRLPRPRPRPRSNPRP | -0.108
9 | RRIRWRPPRLPRPRPRPLGVPRP | 0.459
10 | RRIRHRPPRLPRPRPRPVEDPRP | -0.0354
11 | RRIRYRPPRLPRPRPRPKVNPRP | -0.599
12 | RRIRSRPPRLPRPRPRPVYMPRP | -0.461
13 | RRIRMRPPRLPRPRPRPFRVPRP | 0.22
14 | RRIRGRPPRLPRPRPRPPIGPRP | 0.735
15 | RRIRNRPPRLPRPRPRPDARPRP | 0.222
16 | RRIRMRPPRLPRPRPRPQHPPRP | -0.0395
17 | RRIRERPPRLPRPRPRPKQYPRP | -0.292
18 | RRIRTRPPRLPRPRPRPWYTPRP | -0.555
19 | RRIRRRPPRLPRPRPRPCDFPRP | -0.128
20 | RRIRPRPPRLPRPRPRPAGHPRP | 0.0291
21 | RRIRFRPPRLPRPRPRPLVNPRP | -0.0651
22 | RRIRIRPPRLPRPRPRPMPLPRP | 0.124
23 | RRIRWRPPRLPRPRPRPNIEPRP | -0.0429
24 | RRIRRRPPRLPRPRPRPEMYPRP | 0.0119
25 | RRIRTRPPRLPRPRPRPIRGPRP | 0.074

Row | Sequence | shrunken log2 fold change
26 | RRIRERPPRLPRPRPRPDSRPRP | -0.0302
27 | RRIRLRPPRLPRPRPRPIEMPRP | -0.0708
28 | RRIRSRPPRLPRPRPRPHCQPRP | -0.159
29 | RRIRGRPPRLPRPRPRPEQHPRP | 0.66
30 | RRIRVRPPRLPRPRPRPDETPRP | 0.126
31 | RRIRLRPPRLPRPRPRPDTFPRP | 0.0621
32 | RRIRQRPPRLPRPRPRPRLHPRP | 0.0368
33 | RRIRNRPPRLPRPRPRPNCYPRP | -0.618
34 | RRIRQRPPRLPRPRPRPNVWPRP | 0.134
35 | RRIRLRPPRLPRPRPRPEYRPRP | -0.0221
36 | RRIRHRPPRLPRPRPRPGPYPRP | -0.226
37 | RRIRLRPPRLPRPRPRPDFPPRP | 0.24
38 | RRIRARPPRLPRPRPRPRRSPRP | 0.743
39 | RRIRMRPPRLPRPRPRPARCPRP | 1.16
40 | RRIRARPPRLPRPRPRPGFHPRP | 0.245
41 | RRIRWRPPRLPRPRPRPYKNPRP | -0.61
42 | RRIRHRPPRLPRPRPRPMKGPRP | 0.081
43 | RRIRVRPPRLPRPRPRPMKHPRP | -0.525
44 | RRIRLRPPRLPRPRPRPRWIPRP | -0.074
45 | RRIRVRPPRLPRPRPRPLSYPRP | -0.18
46 | RRIRWRPPRLPRPRPRPWPLPRP | -0.273
47 | RRIRLRPPRLPRPRPRPSRKPRP | -0.177
48 | RRIRSRPPRLPRPRPRPYATPRP | -0.192
49 | RRIRGRPPRLPRPRPRPYWLPRP | -0.0478
50 | RRIRARPPRLPRPRPRPYETPRP | -0.0398

Row | Sequence | shrunken log2 fold change
51 | RRIRIRPPRLPRPRPRPGKHPRP | -0.222
52 | RRIRMRPPRLPRPRPRPNMHPRP | -0.0148
53 | RRIRLRPPRLPRPRPRPDNAPRP | 0.0803
54 | RRIRRRPPRLPRPRPRPVWLPRP | 0.175
55 | RRIRWRPPRLPRPRPRPKQCPRP | 0.31
56 | RRIRYRPPRLPRPRPRPTRVPRP | 0.303
57 | RRIRPRPPRLPRPRPRPICLPRP | 2.37
58 | RRIRPRPPRLPRPRPRPTTYPRP | -0.141
59 | RRIRDRPPRLPRPRPRPGRAPRP | 0.478
60 | RRIRWRPPRLPRPRPRPNRTPRP | 0.121
61 | RRIRCRPPRLPRPRPRPPSKPRP | 0.133
62 | RRIRDRPPRLPRPRPRPISKPRP | 0.002
63 | RRIRERPPRLPRPRPRPLPYPRP | -0.345
64 | RRIRYRPPRLPRPRPRPGPFPRP | -0.189
65 | RRIRSRPPRLPRPRPRPYNVPRP | 0.00567
66 | RRIRSRPPRLPRPRPRPWNIPRP | -0.0599
67 | RRIRWRPPRLPRPRPRPVVMPRP | -0.0601
68 | RRIRMRPPRLPRPRPRPRQMPRP | 0.862
69 | RRIRDRPPRLPRPRPRPQFVPRP | -0.0477
70 | RRIRGRPPRLPRPRPRPVKLPRP | -0.0292
71 | RRIRMRPPRLPRPRPRPFCDPRP | 0.179
72 | RRIRRRPPRLPRPRPRPPIWPRP | 2.59
73 | RRIRDRPPRLPRPRPRPEKQPRP | 0.0247
74 | RRIRPRPPRLPRPRPRPGPFPRP | 0.574
75 | RRIRFRPPRLPRPRPRPASIPRP | -0.231

Row | Sequence | shrunken log2 fold change
76 | RRIRNRPPRLPRPRPRPKCIPRP | -0.223
77 | RRIRLRPPRLPRPRPRPTYWPRP | -0.256
78 | RRIRCRPPRLPRPRPRPMFWPRP | -0.327
79 | RRIRHRPPRLPRPRPRPVEKPRP | -0.0342
80 | RRIRHRPPRLPRPRPRPRFPPRP | 0.0956
81 | RRIRARPPRLPRPRPRPGNDPRP | -0.00116
82 | RRIRYRPPRLPRPRPRPPDKPRP | 0.194
83 | RRIRFRPPRLPRPRPRPQMRPRP | 0.495
84 | RRIRFRPPRLPRPRPRPMDSPRP | -0.398
85 | RRIRRRPPRLPRPRPRPNWSPRP | -0.0147
86 | RRIRIRPPRLPRPRPRPYVIPRP | -0.017
87 | RRIRERPPRLPRPRPRPAKQPRP | 0.00996
88 | RRIRKRPPRLPRPRPRPYAFPRP | -0.111
89 | RRIRARPPRLPRPRPRPNCHPRP | -0.0678
90 | RRIRQRPPRLPRPRPRPGTWPRP | 0.0676
91 | RRIRKRPPRLPRPRPRPCAYPRP | -0.0475
92 | RRIRERPPRLPRPRPRPWCPPRP | -0.758
93 | RRIRPRPPRLPRPRPRPFMLPRP | -0.378
94 | RRIRPRPPRLPRPRPRPLGQPRP | 0.0471
95 | RRIRDRPPRLPRPRPRPRPQPRP | 1.8
96 | RRIRVRPPRLPRPRPRPFLCPRP | -0.0159
97 | RRIRDRPPRLPRPRPRPCAKPRP | 0.244
98 | RRIRDRPPRLPRPRPRPLMCPRP | 0.498
99 | RRIRVRPPRLPRPRPRPKGEPRP | -0.0112
100 | RRIRTRPPRLPRPRPRPYAPPRP | -1.07

Row | Sequence | shrunken log2 fold change
101 | RRIRNRPPRLPRPRPRPMIWPRP | -0.166
102 | RRIRFRPPRLPRPRPRPMHIPRP | -0.419
103 | RRIRTRPPRLPRPRPRPYRPPRP | -0.2
104 | RRIRERPPRLPRPRPRPRCNPRP | -0.122
105 | RRIRERPPRLPRPRPRPKTWPRP | -0.104
106 | RRIRIRPPRLPRPRPRPLMFPRP | -0.617
107 | RRIRFRPPRLPRPRPRPEFAPRP | -0.175
108 | RRIRARPPRLPRPRPRPTLWPRP | 1.05
109 | RRIRHRPPRLPRPRPRPIQVPRP | 0.000744
110 | RRIRMRPPRLPRPRPRPYFEPRP | -0.318
111 | RRIRIRPPRLPRPRPRPEGAPRP | 0.27
112 | RRIRPRPPRLPRPRPRPHQGPRP | -0.213
113 | RRIRFRPPRLPRPRPRPYTSPRP | -0.256
114 | RRIRLRPPRLPRPRPRPSSLPRP | -0.39
115 | RRIRDRPPRLPRPRPRPSLSPRP | -0.0503
116 | RRIRERPPRLPRPRPRPIKWPRP | -0.0383
117 | RRIRVRPPRLPRPRPRPLIPPRP | -0.406
118 | RRIRYRPPRLPRPRPRPPESPRP | 0.0226
119 | RRIRGRPPRLPRPRPRPLPSPRP | 0.83
120 | RRIRQRPPRLPRPRPRPTRDPRP | -0.271
121 | RRIRERPPRLPRPRPRPLHEPRP | -0.65
122 | RRIRTRPPRLPRPRPRPWSAPRP | -0.152
123 | RRIRQRPPRLPRPRPRPYASPRP | -0.00547
124 | RRIRARPPRLPRPRPRPMAEPRP | 0.238
125 | RRIRQRPPRLPRPRPRPKHWPRP | 0.0984
